Residues, ends and D or L forms follow the SMILES beside them.
How the values were obtained:
[1] = target: T1, binding of p85 to HGF/SF receptor (Bos taurus, UniProt P23727); assay: Competition of phosphopeptides with p85 for association with immobilized recombinant HGF/SF receptor (in vitro kinase assay readout); set-up: species or system human; conditions: phosphopeptide 10 μM; p85 from Sf9 lysates; FIG. 1
T1 construct: made in house; host or cells: Sf9 insect cells (baculovirus), for both p85 and the receptor
Procedure: FIG. 1. Inhibition of binding of p85 to HGF/SF receptor by tyrosine-phosphorylated peptides. Recombinant HGF/SF receptor was purified by immunoprecipitation from baculovirus-infected Sf9 cells using a rabbit polyclonal antiserum and phosphorylated with cold ATP. Lysates of Sf9 cells expressing p85 were pre-incubated with each of the phosphopeptides (10 μM). The lysates were then allowed to associate with immobilized recombinant HGF/SF receptors. Following association the complex was washed and receptor-bound p85 was detected by an in vitro kinase assay, as described in Materials and Methods of Example 4. The phosphopeptides are identified by the number of the amino terminal tyrosine.
FIG. 2. Inhibition of binding of p85 to HGF/SF receptor with different concentrations of tyrosine-phosphorylated peptides. The phosphopeptides which efficiently out-competed p85 binding to the HGF/SF receptor (FIG. 1) were used at increasing concentrations (10 nM, 100 nM, 1 μM from left to right) to define their relative affinities for p85. Conditions of the experiment were as in FIG. 1. Phosphopeptide 1365 was used as a negative control for p85 interaction.
In vitro association experiments. Sf9 cells expressing the recombinant HGF/SF receptor (approximately 4×10^6 cells/point) were lysed 36 hours after infection in buffer A (10 mM Tris-HCl buffer pH 7.5, 10% glycerol, 1% Triton X-100, 150 mM NaCl, 5 mM EDTA), supplemented with 0.2 mM phenyl-methylsulfonyl fluoride, 1 μg/ml leupeptin, 0.1 TIU/ml aprotinin and 1 μg/ml pepstatin. Lysates were clarified at 15,000×g at 4° C. for 15 minutes and the supernatants immunoprecipitated after 2 hours incubation with anti-Met antibodies coupled to Protein A-Sepharose. Immunocomplexes were washed three times with buffer A, once with buffer B (10 mM Tris-HCl pH 7.4, 100 mM NaCl, 1 mM EDTA) and once with buffer C (25 mM 4-(2-hydroxyethyl)-1-piperazine-ethanesulfonic acid (HEPES) buffer pH 7.2, 100 mM NaCl, 5 mM MgCl2). Samples were pre-phosphorylated by incubation for 15 minutes at 25° C. in buffer C with 10 μM unlabelled ATP and then washed three times with cold buffer A supplemented with 1 mM sodium ortho-vanadate. Association between the immobilized receptor and the baculovirus-expressed p85 was carried out as previously described (Bardelli, A., et al., Oncogene 7: 1973-1978 (1992)). For the association experiments with the PI 3-kinase holoenzyme three days serum-starved A549 cells (approx. 2×10^6 cells/point) were used as a source of PI 3-kinase. A549 cells were Dounce-homogenized in MOPS buffer (20 mM 3-(N-morpholino)propanesulfonic acid) (pH 7.5), 1 mM MgCl2, 0.1 mM EDTA, 200 mM sucrose, 1 mM sodium ortho-vanadate), supplemented with 0.2 mM phenylmethylsulfonyl fluoride, 1 μg/ml leupeptin, 0.1 TIU/ml aprotinin and 1 μg/ml pepstatin. Homogenates were centrifuged at 100,000×g for 20 minutes at 4° C. When checking for the ability of phosphopeptides to block the association with the receptor, cell lysates were pre-incubated with the phosphopeptides for 1 hour at 4° C. prior to incubation with the immobilized recombinant HGF/SF receptor. Following association, immunocomplexes were washed three times with buffer A, twice with buffer D (0.5M LiCl, 100 mM Tris-HCl pH 7.6), and twice with buffer B.
The presence of the p85 subunit of the PI 3-kinase in the receptor immunoprecipitate was determined by: i) labelling of the receptor and associated proteins with [γ-^32 P]ATP by in vitro kinase assay; ii) Western immunoblotting; iii) PI 3-kinase activity assay.
In vitro kinase assay. Receptor-associated proteins were labelled in 20 μl of buffer C, in the presence of 10 μCi [γ-^32 P]ATP (specific activity 7,000 Ci/Mm; Amersham) at 25° C. for 15 minutes. The reaction was stopped by adding 1 ml of ice-cold Buffer A without protease inhibitors. Samples were washed three times with cold buffer A. The labelled immunocomplexes were eluted from Protein A-Sepharose in boiling Laemmli buffer. […]

GST-SH2 domain of Shc = target: T2, GST-SH2 domain of Shc (Homo sapiens, UniProt P29353); assay: BIAcore binding of Shc SH2 domain to immobilised phosphopeptides; conditions: biosensor; for Affinity constant, ratio between dissociation rate (Kdiss) and association rate constants (Kass): Shc GST-SH2; for Binding of Shc SH2 domain to immobilised phosphopeptide: avidin-immobilized biotinylated phosphopeptide
T2 construct: using the Shc SH2 domain, expressed in bacteria as a GST-fusion protein; made in house; host or cells: bacteria
T2 sequence (P29353 488-579 limits assumed): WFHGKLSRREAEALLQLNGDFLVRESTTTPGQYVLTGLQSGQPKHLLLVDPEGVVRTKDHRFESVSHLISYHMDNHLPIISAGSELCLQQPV
Procedure: FIG. 13. […] The same concentration of Shc-SH2 was injected over two biosensor surfaces on which two phosphopeptides had been immobilised. Y1356P is derived from the sequence VNATY^1356 VNVK (SEQ. ID NO: 28) of the receptor tail; Y317P is derived from the sequence DDPSY^317 VNVQ (SEQ. ID NO: 27). Note that both peptides contain the same core (YVNV) but (SEQ. ID NO: 3) different upstream sequences. The initial rapid increase in the response is due to the "bulk effect" of the injected solution.
In vitro binding studies using GST-fusion protein. The region of the Grb2 cDNA corresponding to its SH2 domain (from nucleotide position 256 to nucleotide position 551) was isolated using polymerase chain reaction (PCR) and cloned into the BamHI-EcoRI sites of the bacterial expression plasmid pGEX-2T (GST-Grb2). Cultures of bacteria expressing GST, GST-Grb2 or GST-Shc (Segatto et al., Oncogene 2105-2112 (1993)) were grown for 3-4 hours at 37° C. in LB medium containing 1 mM IPTG. Bacteria were centrifuged, resuspended in 1/100 volume of ice-cold PY buffer, without Triton™ and lysed by sonication. After adding Triton X-100 to 1%, lysates were clarified by centrifugation. Recombinant proteins were purified onto glutathione Sepharose™ (Pharmacia) and used as such for binding assays. For each reaction, about 5 μg of GST, GST-Grb2 or GST-Shc bound to glutathione Seharose was incubated for 2 hrs. at 4° C. with […] of appropriate cell lysate made in PY buffer. Protein complexes were washed 5 times in ice cold PY buffer, eluted and denatured by heating at 95° C. for 3 min in Laemmli buffer, resolved on SDS-PAGE and analyzed by immunoblot.
The basic principles of operation as well as the methodology for obtaining kinetic measurements of SH2 domain interactions using the BIAcore instrument (Pharmacia) have been previously described in detail (Panayotou et al., Mol. Cell. Biol. 13: 3567-3576 (1993), Ponzetto et al., Mol. Cell. Biol. 13: 4600-4608 (1993)). Purified GST-SH2 domains or intact proteins were desalted in BIAcore running buffer (20 mM Hepes, pH 7.4, 150 mM NaCl, 3.4 mM EDTA, 0.005% Tween 20 and 4 mM DTT) and injected over avidin-immobilized, biotinylated phosphopeptides. The amount of phosphopeptides immobilized was normalized by measuring the binding of anti-phosphotyrosine antibodies. Association was measured over a range of protein concentrations and dissociation of bound material was allowed to occur either in buffer flow or upon injection of 20 μM competing, non-biotinylated phosphopetide. Peptide and protein concentrations were calculated by amino acid analysis on an Applied Biosystem amino acid analyzer.
The direct interaction between the SH2 domain of Shc and phosphotyrosine Y^1349 or Y^1356 was confirmed by real-time Biosensor analysis (Panayotou et al., ibid; Felder et al., Mol. Cell. Biol. 13: 1449-1455 (1993)).
The Shc sequence Y^317 VNV (SEQ. ID NO: 3) is identical to one of the two Shc binding sites present in the SF/HGF receptor (FIG. 8). […] The biosensor was used to compare binding of the Shc SH2 domain to the phosphopeptide DDPSY^317 VNVQ (SEQ. ID NO: 27), present on the Shc molecule, and to the phosphopeptide VNATY^1356 VNVK (SEQ. ID NO: 28), present on the SF/HGF receptor. […] Thus Shc-Shc association is not favoured in vivo, and the Shc phosphotyrosine residue Y^317 is available to bind other molecules, rather than to mediate the formation of concatamers.

T1 sequence (P23727 whole entry): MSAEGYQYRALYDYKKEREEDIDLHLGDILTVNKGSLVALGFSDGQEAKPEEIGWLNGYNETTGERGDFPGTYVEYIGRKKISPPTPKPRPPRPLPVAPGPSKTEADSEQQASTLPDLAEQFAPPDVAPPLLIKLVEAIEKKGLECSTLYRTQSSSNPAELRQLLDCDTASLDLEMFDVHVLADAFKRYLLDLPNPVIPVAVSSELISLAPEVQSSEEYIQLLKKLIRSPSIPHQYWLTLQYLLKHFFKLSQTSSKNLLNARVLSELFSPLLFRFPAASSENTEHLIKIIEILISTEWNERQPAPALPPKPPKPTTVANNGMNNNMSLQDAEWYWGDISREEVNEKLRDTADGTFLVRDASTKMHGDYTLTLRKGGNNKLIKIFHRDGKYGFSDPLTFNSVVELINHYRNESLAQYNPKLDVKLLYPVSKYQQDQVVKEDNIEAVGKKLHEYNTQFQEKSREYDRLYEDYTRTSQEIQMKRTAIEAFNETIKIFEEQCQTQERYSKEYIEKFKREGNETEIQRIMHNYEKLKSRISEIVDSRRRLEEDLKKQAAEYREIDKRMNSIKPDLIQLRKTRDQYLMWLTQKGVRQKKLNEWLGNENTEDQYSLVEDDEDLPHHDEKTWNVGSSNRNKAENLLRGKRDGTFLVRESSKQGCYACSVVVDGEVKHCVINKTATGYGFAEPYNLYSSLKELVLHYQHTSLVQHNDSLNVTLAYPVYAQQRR

Compound	Inhibition of binding of p85 to HGF/SF receptor [1]	Affinity constant, ratio between dissociation rate (Kdiss) and association rate constants (Kass) (GST-SH2 domain of Shc)	Binding of Shc SH2 domain to immobilised phosphopeptide (GST-SH2 domain of Shc)	Binding of Shc SH2 domain to immobilised phosphopeptide (GST-SH2 domain of Shc; listed as Y1356P)
CC(C)C[C@H](NC(=O)[C@@H]1CCCN1C(=O)[C@H](CC(=O)O)NC(=O)[C@@H]1CCCN1C(=O)[C@H](CS)NC(=O)[C@@H](N)Cc1ccc(OP(=O)(O)O)cc1)C(=O)N[C@@H](Cc1ccc(O)cc1)C(=O)N[C@@H](CCC(=O)O)C(=O)O [H-Tyr*-Cys-Pro-Asp-Pro-Leu-Tyr-Glu-OH] (HELM PEPTIDE1{[N[C@@H](Cc1ccc(OP(=O)(O)O)cc1)C(=O)[*:2]].C.P.D.P.L.Y.E}$$$$V2.0)	only partially effective			
H-Ile-Gly-Glu-His-Tyr*-Val-His-Val-Asn-OH (H-IGEHYVHVN-OH; not fully specified (residue 5); also: Tyr5 (Y*) may be phosphorylated or unphosphorylated, not settled) [IGEHY^1349* VHVN]		too high to be exactly determined		
H-Val-Asn-Ala-Thr-Tyr*-Val-Asn-Val-Lys-OH (H-VNATYVNVK-OH; not fully specified (residue 5); also: Tyr5 (Y*) may be phosphorylated or unphosphorylated, not settled) [VNATY^1356* VNVK]		too high to be exactly determined	specifically bound	binds to the docking site of the SF/HGF receptor
